Data taken from US20180155451A1 (published 2018).

Biological target: T1, FcγRIa extracellular domain with C-terminal His tag (human, UniProt P12314 16-292)
T1 construct: extracellular domain; Expressed in FreeStyle293 cells; used as analyte in Biacore; also called FcgRI; 1a; not shown: His tag at the C terminus
Test: SPR (Biacore), captured antibody, FcγRIa analyte; relative to GpH7-A5/GpH7-B3/GpL16-k0 = 100

T1 sequence (P12314 16-292): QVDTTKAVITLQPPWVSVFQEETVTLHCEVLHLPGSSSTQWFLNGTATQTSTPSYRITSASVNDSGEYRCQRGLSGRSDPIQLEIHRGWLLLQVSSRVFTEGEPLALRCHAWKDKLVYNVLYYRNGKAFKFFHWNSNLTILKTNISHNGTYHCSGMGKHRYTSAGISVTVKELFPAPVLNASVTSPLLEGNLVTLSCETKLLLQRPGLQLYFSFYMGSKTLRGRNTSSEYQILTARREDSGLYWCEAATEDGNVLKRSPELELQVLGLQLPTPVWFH

Binder | He/Con_1a
GpH7-A5/GpH7-B3 variant (A330_01G)/GpL16-k0 (antibody, human IgG1, kappa, Heterodimerized; only the B3 chain altered; also called He Ab A330_01G) heavy 1: not shown heavy 2: not shown light: DIVMTQSPLSLPVTPGEPASISCQASESLVHSNRNTYLHWYLQKPGQSPQLLIYKVSNRFSGVPDRFSGSGSGTDFTLKISRVEAEDVGVYYCSQNTHVPPTFGQGTKVEIERTVAAPSVFIFPPSDEQLKSGTASVVCLLNNFYPREAKVQWKVDNALQSGNSQESVTEQDSKDSTYSLSSTLTLSKADYEKHKVYACEVTHQGLSSPVTKSFNRGEC | 106 % of control
GpH7-A5/GpH7-B3 variant (I336_11K)/GpL16-k0 (antibody, human IgG1, kappa, Heterodimerized; only the B3 chain altered; also called He Ab I336_11K) heavy 1: not shown heavy 2: not shown light: DIVMTQSPLSLPVTPGEPASISCQASESLVHSNRNTYLHWYLQKPGQSPQLLIYKVSNRFSGVPDRFSGSGSGTDFTLKISRVEAEDVGVYYCSQNTHVPPTFGQGTKVEIERTVAAPSVFIFPPSDEQLKSGTASVVCLLNNFYPREAKVQWKVDNALQSGNSQESVTEQDSKDSTYSLSSTLTLSKADYEKHKVYACEVTHQGLSSPVTKSFNRGEC | 105 % of control
GpH7-A5/GpH7-B3 variant (H268_13S)/GpL16-k0 (antibody, human IgG1, kappa, Heterodimerized; only the B3 chain altered; also called He Ab H268_13S) heavy 1: not shown heavy 2: not shown light: DIVMTQSPLSLPVTPGEPASISCQASESLVHSNRNTYLHWYLQKPGQSPQLLIYKVSNRFSGVPDRFSGSGSGTDFTLKISRVEAEDVGVYYCSQNTHVPPTFGQGTKVEIERTVAAPSVFIFPPSDEQLKSGTASVVCLLNNFYPREAKVQWKVDNALQSGNSQESVTEQDSKDSTYSLSSTLTLSKADYEKHKVYACEVTHQGLSSPVTKSFNRGEC | 109 % of control
GpH7-A5/GpH7-B3 variant (A330_10E)/GpL16-k0 (antibody, human IgG1, kappa, Heterodimerized; only the B3 chain altered; also called He Ab A330_10E) heavy 1: not shown heavy 2: not shown light: DIVMTQSPLSLPVTPGEPASISCQASESLVHSNRNTYLHWYLQKPGQSPQLLIYKVSNRFSGVPDRFSGSGSGTDFTLKISRVEAEDVGVYYCSQNTHVPPTFGQGTKVEIERTVAAPSVFIFPPSDEQLKSGTASVVCLLNNFYPREAKVQWKVDNALQSGNSQESVTEQDSKDSTYSLSSTLTLSKADYEKHKVYACEVTHQGLSSPVTKSFNRGEC | 107 % of control
GpH7-A5/GpH7-B3 variant (H268_10E)/GpL16-k0 (antibody, human IgG1, kappa, Heterodimerized; only the B3 chain altered; also called He Ab H268_10E) heavy 1: not shown heavy 2: not shown light: DIVMTQSPLSLPVTPGEPASISCQASESLVHSNRNTYLHWYLQKPGQSPQLLIYKVSNRFSGVPDRFSGSGSGTDFTLKISRVEAEDVGVYYCSQNTHVPPTFGQGTKVEIERTVAAPSVFIFPPSDEQLKSGTASVVCLLNNFYPREAKVQWKVDNALQSGNSQESVTEQDSKDSTYSLSSTLTLSKADYEKHKVYACEVTHQGLSSPVTKSFNRGEC | 111 % of control
GpH7-A5/GpH7-B3 variant (A330_19Q)/GpL16-k0 (antibody, human IgG1, kappa, Heterodimerized; only the B3 chain altered; also called He Ab A330_19Q) heavy 1: not shown heavy 2: not shown light: DIVMTQSPLSLPVTPGEPASISCQASESLVHSNRNTYLHWYLQKPGQSPQLLIYKVSNRFSGVPDRFSGSGSGTDFTLKISRVEAEDVGVYYCSQNTHVPPTFGQGTKVEIERTVAAPSVFIFPPSDEQLKSGTASVVCLLNNFYPREAKVQWKVDNALQSGNSQESVTEQDSKDSTYSLSSTLTLSKADYEKHKVYACEVTHQGLSSPVTKSFNRGEC | 105 % of control

Continued, values first:

He/Con_1a | Binder
105 % of control | GpH7-A5/GpH7-B3 variant (S337_07I)/GpL16-k0 (antibody, human IgG1, kappa, Heterodimerized; only the B3 chain altered; also called He Ab S337_07I) heavy 1: not shown heavy 2: not shown light: DIVMTQSPLSLPVTPGEPASISCQASESLVHSNRNTYLHWYLQKPGQSPQLLIYKVSNRFSGVPDRFSGSGSGTDFTLKISRVEAEDVGVYYCSQNTHVPPTFGQGTKVEIERTVAAPSVFIFPPSDEQLKSGTASVVCLLNNFYPREAKVQWKVDNALQSGNSQESVTEQDSKDSTYSLSSTLTLSKADYEKHKVYACEVTHQGLSSPVTKSFNRGEC
102 % of control | GpH7-A5/GpH7-B3 variant (I336_13S)/GpL16-k0 (antibody, human IgG1, kappa, Heterodimerized; only the B3 chain altered; also called He Ab I336_13S) heavy 1: not shown heavy 2: not shown light: DIVMTQSPLSLPVTPGEPASISCQASESLVHSNRNTYLHWYLQKPGQSPQLLIYKVSNRFSGVPDRFSGSGSGTDFTLKISRVEAEDVGVYYCSQNTHVPPTFGQGTKVEIERTVAAPSVFIFPPSDEQLKSGTASVVCLLNNFYPREAKVQWKVDNALQSGNSQESVTEQDSKDSTYSLSSTLTLSKADYEKHKVYACEVTHQGLSSPVTKSFNRGEC
107 % of control | GpH7-A5/GpH7-B3 variant (S337_06M)/GpL16-k0 (antibody, human IgG1, kappa, Heterodimerized; only the B3 chain altered; also called He Ab S337_06M) heavy 1: not shown heavy 2: not shown light: DIVMTQSPLSLPVTPGEPASISCQASESLVHSNRNTYLHWYLQKPGQSPQLLIYKVSNRFSGVPDRFSGSGSGTDFTLKISRVEAEDVGVYYCSQNTHVPPTFGQGTKVEIERTVAAPSVFIFPPSDEQLKSGTASVVCLLNNFYPREAKVQWKVDNALQSGNSQESVTEQDSKDSTYSLSSTLTLSKADYEKHKVYACEVTHQGLSSPVTKSFNRGEC
106 % of control | GpH7-A5/GpH7-B3 variant (S337_04F)/GpL16-k0 (antibody, human IgG1, kappa, Heterodimerized; only the B3 chain altered; also called He Ab S337_04F) heavy 1: not shown heavy 2: not shown light: DIVMTQSPLSLPVTPGEPASISCQASESLVHSNRNTYLHWYLQKPGQSPQLLIYKVSNRFSGVPDRFSGSGSGTDFTLKISRVEAEDVGVYYCSQNTHVPPTFGQGTKVEIERTVAAPSVFIFPPSDEQLKSGTASVVCLLNNFYPREAKVQWKVDNALQSGNSQESVTEQDSKDSTYSLSSTLTLSKADYEKHKVYACEVTHQGLSSPVTKSFNRGEC
105 % of control | GpH7-A5/GpH7-B3 variant (S337_08L)/GpL16-k0 (antibody, human IgG1, kappa, Heterodimerized; only the B3 chain altered; also called He Ab S337_08L) heavy 1: not shown heavy 2: not shown light: DIVMTQSPLSLPVTPGEPASISCQASESLVHSNRNTYLHWYLQKPGQSPQLLIYKVSNRFSGVPDRFSGSGSGTDFTLKISRVEAEDVGVYYCSQNTHVPPTFGQGTKVEIERTVAAPSVFIFPPSDEQLKSGTASVVCLLNNFYPREAKVQWKVDNALQSGNSQESVTEQDSKDSTYSLSSTLTLSKADYEKHKVYACEVTHQGLSSPVTKSFNRGEC
